Measurements from the domain aggregation screens of Martell et al. (2025).

Assay: soluble fraction after stress (log2 fold change); higher = more stays soluble; pooled small domains, quantitative proteomics
Settings: stress: 75 degC
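Also: 20 min heating vs room temperature control held 20 min.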

Sequence | soluble fraction (log2)
HMDTPVYYYVNGNGVRMRKDASLESDILILLYKGTKVEYVDVKGEWIKVKYNNEIGYIRNDLLSAEMPD | -0.784
HMDTQITPNKAKEIALAHAGVTEAAANFKKIKLDNKNGKSIYEIEFIANKSRYEFIVDAKNGSIIKFEK | -0.378
HMDTRKEREIALYEAALRLIASGVNPAAMKVQQIADEAGIGKGTVYEYFASKEEILHGMALH | -0.218
HMDTTLFGLFQNVILTQEDYEELSRTIVEDLDGLIDRLSAYMTSTGKTYKNHKATLLSWYLQDEKKFK | -1.78
HMDTVEALTEQLKKLDKRGEGQIPAPEFKQYMMNMGGKMTAEELDEMMKVADPGKEGVVNIAEFADAL | 0.313
HMDTVEFPVQVNGKVRGKITVAADAGKDAIETAALADEKVLAFLDGATPKKVIVVPGKLVNLVVQPG | 0.62
HMDTVSYMSDAVKAGAVTPSHDEEARARYLLYAGFGAILLFLRYEASEPGDIESAIREFMERYGPVTAELY | 0.347
HMDTYKGFIFEVVDKYFSPTLNQKIGQAKNKQGIVLLQTKPSFTQDPKVLIEELKLIIDRDNLKA | -1.07
HMDVAAQITYAMRTMGVAPIPRNYELFYEAYIGSNPALTKELAALGSKATQEELDELGQQYF | -1.89
HMDVFPDESLKAWLIEMGFKLDQKKMNVFTVLRRMLLQTAPSVKEFRILEIVLQQSRRKLKELNDLKKS | -0.00949
HMDVKQSAAGVAGRIRFELNRTLTGQGHEKFTSASQAIGPRPAAELARRLFNSGSVVGVHVFANIVTVDLL | 0.136
HMDVLKMKVEDLNIGSRTVNSLTAAKIKTVAGLIKKSKESLLELDGMGNKGVEEIILALKKLGLEL | -1.08
HMDVPTEEAILAYNNVPIELAAKFIGWSDITIRYALQEERAPFGMAAQNPKTGTWSYNISPGLLLKYKSGE | -2.23
HMDVPVEVFMERIVTALREGRKTTFSELMEGKPERGKVIGTFLALLQLSKGQQIQIHQEQRTGEISIEGGA | -0.328
HMDVQTVTVIENVNVRKSASENGQKLGLAYTGEKLELLMKQADGWTRVKYNGETAYVKSDYV | 0.372
HMDVTSLDMLRFLMDQHGLRQQDLSELGSQGVVSEILAGKRELNLRHIGALARRFKVPPEVFLPA | -0.778
HMDVYKRQKLRNFIESLFEDAPKNKQTIELKEEMLQNLIDKYNDLVDSGKSSEAAYNIATAS | 0.131
HMDWNPVRDITAHQVLAILQATHIRAPTVAAEAKRTLSSIFQFAVATLRADIDPVWPVRNALPKNKT | -0.262
HMDYARYGLSEKEAELIELIAQGMNNKEISAEIYLSEGTVRNYISELLEKLELRDRTQLAVYYYTHR | -2.72
HMDYDDLVPLDARGRLRLDGQDIILAFGRHRGRSIEEVHNHDKSYFDWLVSPAGGLEDEVIATLRERF | -0.613
HMDYENGTVKWFNTKKGYGFITRENGEDLFVHFRNIKGRGRRSLNDGEPVTFVVIEGDKGLQADQVSA | -0.34
HMDYGSLQRAIENQLEVRNYQKPKKFLTKIIQLMETIMVRHGVMVVGLTGTGKTTVIETLSRSMEQ | -0.591
HMDYIGIQAAKEAALKDADISSEQAVFTMAELDNKNNIFYYQIMFTENGTEYRYDIDALTGVIIEKNHFF | -2.4
HMDYKLDVNFPEMYLEQIPAEKRAALIQILEQDPRPSYQKDPVRIYGMSYAGMEIHFRVDKETLYVTEVER | -1.06
HMDYLSEFITDKVVRADGYSIRKGELSNEFKQWFITNVGTKNPKPKEIHDYMDRKFGKNKNGIWKNVKIKL | -0.492

Sequence | soluble fraction (log2)
HMDYQEVEFEKLGKEILTKILLDINKKATKKTLKILIDGFNYDSYRSFYIAIGKAQISSDSILELLQH | -0.994
HMDYSWNFFIGFSVVDKVAGNLGTIEEIDDKTINTLFLVKNDDEDLIIPATEDFVEKIDAKKRILYLNLPE | -2.51
HMDYYASVDQVWRELGLAGPARRALIDDGLFKLSDLRKTSLAAVKELHGMGPNAIRILTTEMKKADLSFR | -2.15
HMDYYDTLGVPRNASQSDIKKAYKKQSMQHHPDRTGGDDTKFKDVNEAYQVLSNSEKKQMYDQFGTA | 0.07
HMDYYNILGVNKAATAQDIKRAYRKLAKEHHPDHGGDATRLQQVNEAYDTLKDPQRREQYDS | 0.215
HMEAADAGTLAQRAAQYFNEKNYAAALDALERRAAMAPETTELRMMRGWSLLHLNRKDEARNAFATLG | -0.101
HMEAAIRNALSRVENPDETQRARIYRTAHDALIRNLENRGITDPEQVRPQVSRLKDLISVIEREYHG | -0.131
HMEAALTLRVDKAGSLRSLLSDEQYAKTSKIIVSGEINTLDIKTLQEMSGEKGSLQSIDLSQANIVAY | 0.0407
HMEAFELTPREKQVLQLLVQGKAYKIIAADLDITYDTVRAHIKKIYEKLHVGSMTEAVAKAIQHKL | -2.08
HMEAKKVIAVHIIGEINKPGIVELEEGARVIDAIKKAGGTTEKADLAQINLAYILKDGQKIYIPNTEDN | 0.254
HMEALASESVKDKIRKIIDSEDPSRPMSDQRIKEMLKAANIDIARRTVTKYREAMNILSSTKRRQV | -0.432
HMEALDPLTAREQEVLEMILSGKSNREIAAELHITENTVKTHAQSIYSKYDVRGRAKLISLLLKGEA | -0.406
HMEALQKVSINYYDEGAGKQIAEVPLEVGAGDTEIALAVINKYMPAEYNLVSTDYQIRGGYVYVSVTPA | -0.49
HMEAPPHEALSNREFQVLQLLSQGRSVTQIAHQLTLSANTISTYRARIFDKLGLHNPADLYAYAARHGLM | -2.41
HMEAPWQEIKRQVMDGLDMSREFTDEELRERIALAVRSYSKEKLLSLKVRESYEEQIFNSFR | -1.05
HMEAQFIDINDVRIGTYVYVDLGWIKHPFALNSFKITSRDQIDTLIKLGVKRIRWSPEKSDS | -3.18
HMEARNDWAQQSRADAEFGGEKLDENLAVAKKAVEALASPELKTLLEQSGLGNHPEIIRLFYRAGRSLS | 0.0741
HMEATILTATPEAAGQRLDAFLAETLPELTRSAAQRLIAEGQVAVDGKIPTKSLKLAGGETVSVRLPEPE | 0.734
HMEAVIGGIYRHYKGNNYKLLAVATHSETLEKMAVYQALYGEMGIWVRPLAMFMETIEKDGQSLKRFE | -2.67
HMEDAWMKKELWDAIATLPKKQRLVMTMRLTNNHSYKEIAAILGISENSAKVSYHHAVERLKEKFK | -2.23
HMEDDPIYEQVMIFLLDKQITSAPELERRFKITHQRAIELLAQMEKTGIVSTMGHAGKRDVLT | -1.85
HMEDEFNQIASQKNVPSFLGKGKKEVINIAKKNKIKINLSGNGYVKRQIPAPGEVISHLDEVTIFLEPG | -0.0115
HMEDEVYFVPSPASRFNPWIAALASRRVPYRVEYDGAERRIAVPAGYAEKAGEELAAYERINHAWPR | -0.371
HMEDFDLSDTERKIIAQIGHGYSNKEIAQKLGFSEGTIRNYLSVILDKLDLRDRTQLAIWYLSR | -0.592
HMEDIAAIAQRIQGLRDIVGISVEEMAKALDISEQEYREYEKGETDFSFSFLYTVANVLGINITDLI | -1.29
